In the DeepSol protein solubility set:

Assay: soluble on expression in E. coli; label from the status in PepcDB or PDB records

Row | Sequence | soluble on expression in E. coli
1 | MSLDRIKEYLQDKGKVTVNDLAQALGKDSSKDFRELIKTLSLMERKHQIRFEEDGSLTLEAKKKHEITLKGIFHAHKNGFGFVSLEGEEDDLFVGKNDVNYAIDGDTVEVVIKKVADRNKGTAAEAKIIDILEHSLTTVVGQIVLDQEKPKYAGYIRSKNQKISQPIYVKKSALKLEGTEVLKVFIDKYPSKKHDFFVASVLDVVGHSTDVGIDVLEVLESMDIVSEFPEAVVKEAESVPDAPSQKDMEGRLDLRDEITFTIDGADAKDLDDAVHIKALKNGNLELGVHIADVSYYVTEGSALDKEALNRATSVYVTDRVVPMLPERLSNGICSLNPQVDRLTQSAIMEIDKHGRVVNYTITQTVIKTSFRMTYSDVNDILAGDEEKRKEYHKIVSSIELMAKLHETLENMRVKRGALNFDTNEAKILVDKQGKPVDIVLRQRGIAERMIESFMLMANETVAEHFSKLDLPFIYRIHEEPKAEKVQKFIDYASSFGLRIYGTASEISQEALQDIMRAVEGEPYADVLSMMLLRSMQQARYSEHNHGHYGLAADYYTHFTSPIRRYPDLLVHRMIRDYGRSKEIAEHFEQVIPEIATQSSNRERRAIEAEREVEAMKKAEYMEEYVGEEYDAVVSSIVKFGLFVELPNTVEGLIHITNLPEFYHFNERDLTLRGEKSGITFRVGQQIRIRVERADKMTGEIDFSFVPSEFDVIEKGLKQSSRSGRGRGSNRRSDKKEDKRKSGRSNDKRKHSQKDKKKKGKKPFYKEVAKKGAKHGKGRGKGRRTKEGHHHHHH | not soluble
2 | MSLDSPTASSNGDLIEEIQASSTSTDPRTFTGLSIVEDIGDVVPVTDNASPALPVSLTDADGNDVVVEDVSRILPLDLYGTYSKTIAGLGLVDNIVGRTVSSTEPALADTEVVTTGGHTLNAEAILNLHPTLVIIDHSIGPREVIDQIRAAGVATVIMSPQRSIASIGDDIRDIASVVGLPEEGEKLAERSVAEVEEASTVVDELTPEDPLKMVFLYARGTGGVFFILGDAYGGRDLIEGLGGVDMAAEKGIMDLAPANAEALAELNPDVFVMMSEGLVSTGGIDGLMERPGIAQTTAGQNQRVLALPDGQSLAFGAQTGELLLRASRELYVQGGEGHHHHHH | soluble
3 | MSLDSRKPGHRPVTMRDVAKAAGVSRMTVSRALKKDSPISSETRERILKVVKDMNYVPDQVAGSLTTKRSGFVGLLLPSLNNLHFAQTAQSLTDVLEQGGLQLLLGYTAYSPEREEQLVETMLRRRPEAMVLSYDGHTEQTIRLLQRASIPIVEIWEKPAHPIGHTVGFSNERAAYDMTNALLARGFRKIVFLGEKDDDWTRGAARRAGFKRAMREAGLNPDQEIRLGAPPLSIEDGVAAAELILQEYPDTDCIFCVSDMPAFGLLSRLKSIGVAVPEQVSVVGFGNFEVSRFASPEISTVRVDPIAIGRETGSLILRLLDPKQRSPQTAQHITLPPVLEFRPSLKNEGHHHHHH | soluble
4 | MSLDTIKVGFNIPLTGDIPKVGESSKFAAEILKGEINAAGGLKVGDKTYQLEFIYEDNESKAESATATALKLITQDGVLAIIGPQSSKQAIPAGQVCNDNKTPMISPWSTNPKTTENRPYVFRACFLDPFQGPVAAKFVTEEFKAKKAAVLYDIASDYPKGLAEFFKDAFEKIHGPGSVVAFETFTTKDKDFSAQLTKIVASGADVLFTPQYYDEVPLIVKQAQELGWKKPIMGSDSWGSAELMKLCGDACKGYCFSTHYAAAGAKGATKEFIDKYNTKYGYVPDDVAALTWDAINLLFTAVKNTGGLSGNLDKDRDAIKDKLTQVKDFEGITGKMTFAPGGNPTKCAVVVKISDKGEFEFFKSEGHHHHHH | soluble
5 | MSLDVEDTVKKLNLKFRNIEGERLILAITCDENKNVLMVAFMNEEALKKTLETGYMHYYSTSRKKLWRKGEESGNVQKLIKFYRDCDGDALLFIVEQKGVACHEGYYSCFHYKIEDGELKITGEYYSKREGHHHHHH | soluble
6 | MSLEALMNVQFFDHAHHKLKIRGLQSPVDVLTFEGREQLSTPFRYDIQFTSSDKAIAPESVLMQDGAFSLTAPPVQGMPVQTALRTLHGVITGFKHLSSSQDEARYEVRLEPRMALLTRSRQNAIYQNQTVPQIVEKILRERHQMRGQDFVFNLKSEYPAREQVMQYGEDDLTFVSRLLSEVGIWFRFATDARLKIEVIEFYDDQSGYERGLTLPLRHPSGLFDGETEAVWGLNTAYSVVEKSVSTRDYNYREATAEMTTGQHDATGGDNTTYGEAYHYADNFLQQGDKEAAESGAFYARIRHERYLNEQAILKGQSTSSLLMPGLEIKVQGDDAPAVFRKGVLITGVTTSAARDRSYELTFTAIPYSERYGYRPALIPRPVMAGTLPARVTSTVKNDIYAHIDKDGRYRVNLDFDRDTWKPGYESLWVRQSRPYAGDTYGLHLPLLAGTEVSIAFEEGNPDRPYIAGVKHDSAHTDHVTIQNYKRNVLRTPANNKIRLDDERGKEHIKVSTEYGGKSQLNLGHLVDAGKEQRGEGFELRTDLWGAVRAKKGIFISADAQDKAQGQVLEMQPALARLSAALVTMESLAASAQQAQALAADVSRQQTLLQQKIEQLQQEVLLGSAPKGVALVSGEDMQLSASDNLTLTAGKQLDIGVQKDFTLAAGKQLSLYSRAGAKLFSSHNDIDIQAQGGNLTTWSTQDTYISSGKKLVVTAQDELTLICGGGYIKIKSGNVEIGGPGKLLVKNAGIKKAGSGSMQGVMKSFEPESFDENFIISNPASGKPIANQKYEIHMPDGSVIAGITDAMGYSSLVASKASDDLKIILKKEGHHHHHH | soluble
7 | MSLEASVEGLDGPAATNVVNFLEPLDTRNISEARLDSDIRERTQRALRAFGYYSPQIETSYPDGMFAGDVVIAIDPGPRTHITQLDLGVDGAAGDDPAFRKALASIPLEEGDPLRHDRYDSAKTRLSTLALERGYFDAGFAQQRMEVRPWEASARLFLRMRSGPRYRFGDIRFAGSQIEEARLRRMLPFTKGDPYLAGQLAEYNQRLGQTNWFRGIAVRPRIGDERNVTRGGQWWQEATGRTPPLSSGAGLAAVRRLHGLQSTDVPVDVDLVPADRHKFETGIGYATDVGPRVQFSWEMPWLNDRGHSLSNSLYLSGPEQRFDGEYVMPLANPLRDSYRLSYGLRSLDNEDTQSLESSVELARRWEFDNDWVQELYFRTTYEDFTQADQDEQVLLLYPGISWTRTRTRQPNFPRWGDRQRLALEVSDPAWGSDARFLRARFDSQWIRTLGSDNRFVGRIGGGATATDTFDKIPPSLRFFAGGDQSVRGYSYESLSPENDDGELLGGQHMLTASAEYQRRVTGNWWGATFVDTGNAFNAWWPEELKTGAGVGVRWISPVGPVRFDIAHPFDNEEDAWRLHFAIGPEEGHHHHHH | not soluble
8 | MSLEDRIDQVEQAITKSRRYQTVAPATVRRLARAALVAARGDVPDAVKRTKRGLHEIYGAFLPPSPPNYAALLRQLDSAVDAGDDEAVRAALRRAMSVHVSTRERLPHLAEFYQEIFRHVPQPNTLRDLACGLNPLAAPWMGLSDQTVYVASDIDARLIGFVDAALTRLGVAHRTSVVDLLEDRLDEPTDVTLLLKTLPCLETQRRGSGWEVIDIVNSPIIVVTFPTKSLGQRSKGMFQNYSQSFESQARERSCRIQRLEIGNELIYVIQKEGHHHHHH | soluble
9 | MSLEDSTATFETRNMYFNRDFRDGTSAQQSKRDEWAQGFILNFESGYTDGTVGFGLDALGMLGIKLDSSPDRTDSGLLPTHDDGKAADEYSKLGLTGKVKISQTELKIGTLIPELPTLQPNDGRILPQTFEGGLLTSKEIKGLTFTGGRIDKAKDRNDTNWEDLALNNKNGRFGGTFSADNLALGGLDYQFTDRITGSYHFAQLDDIYRQHFIGMVATQPWGPGTLGADLRLAMSDDAGAAKAGNIDNTTVNGMLSYALGGHKVSAAWQQLSGESAFPYVDGADPYLVNFVQINDFAGADERSWQARYDYNFAALGVPGLTFMTRYISGDNVSRAAGGEGKEWERNTELKYVVQSGPLKNVAVRLRNATFRSNFARDADEVRLLVSYSVALWEGHHHHHH | soluble
10 | MSLEDYILKVEELNYNYSDGTHALKGINMNIKRGEVTAILGGNGVGKSTLFQNFNGILKPSSGRILFDNKPIDYSRKGIMKLRESIGIVFQDPDNQLFSASVYQDVSFGAVNMKLPEDEIRKRVDNALKRTGIEHLKDKPTHCLSFGQKKRVAIAGVLVMEPKVLILDEPTAGLDPMGVSEIMKLLVEMQKELGITIIIATHDIDIVPLYCDNVFVMKEGRVILQGNPKEVFAEKEVIRKVNLRLPRIGHLMEILKEKDGFVFDELDLTIGQARKTINSWKNKIFNEGHHHHHH | soluble
11 | MSLEELPRFFTQNGRHALLVDGAPYTILAAQLHNSSAWPAVLPPALDQVVALHANTVEAPVYWEQFEPAPGRFDTTNVDALIAGARKRGLRVALLWFGSWKNGQMHYVPEWIKRDEATYPRMRDANGEPVDVLSPHVAANVQADARAFTALMQHLRKVDGDRHTVIVVQVENEPGAIGTVRDHGPAGEAAFAQPVPAGIAAALGKPAGSWQQLFGAEAAEAFNAHATAAYIEQVAAAGKRVYPLPLYVNTWLRYKGKRYPGMDYPSGGATVNVFALWRAATPSIDFIGTDIYTSDYGEYTKVIGQYAREGHHHHHH | soluble
12 | MSLEEYPQMIVFEDVPYGFWAYDAIMDLAYHKIILGYGNGKYGVGDLTTREQVAGIIYRTLEMKEEGSVANPYKDISDSTTTFKKEILALTKRGVFTGDGQGNFRPKAPVSRAEMAVILKRAFTFETKQKHTFKDIPKGHWAEDAISALQSNNVVRGTGNGMYELNRPVPREQYAQFINNAIINYHLKEDWREGHHHHHH | not soluble
13 | MSLEISFTRVALLAAALFFVGCDQKPQPAKTHATEVTVLEGKTMGTFWRASIPGIDAKRSAELKEKIQTQLDADDQLLSTYKKDSALMRFNDSQSLSPWPVSEAMADIVTTSLRIGAKTDGAMDITVGPLVNLWGFGPEQQPVQIPSQEQIDAMKAKTGLQHLTVINQSHQQYLQKDLPDLYVDLSTVGEGYAADHLARLMEQEGISRYLVSVGGALNSRGMNGEGLPWRVAIQKPTDKENAVQAVVDINGHGISTSGSYRNYYELDGKRLSHVIDPQTGRPIEHNLVSVTVIAPTALEADAWDTGLMVLGPEKAKEVVRREGLAVYMITKEGDSFKTWMSPQFKSFLVSEKEGGSHHHHHH | soluble
14 | MSLEKKTANDVVTLARAQDRLTTLEYIEAIFEDFLEFHGDRYFADDLAVVGGVATLQGKPVTVVGIQKGRNLPENIERNFGSPNPEGYRKALRLMKQAEKFNRPVITFVNTAGAYCGIGAEERGEGEAIAQNLLEMSDLKVPIISVIIGEGGSGGALALAVADEVWMLEHTIYAVLSPEGFASILWKDGSRAKEAAELMKITATELKELAIVDKVIPEVMNGQPLEQAKINRMLQKAFISKLTELAKLDTETLLEKRYQRFRKYEGHHHHHH | soluble
15 | MSLEKNALYFVPLGGAGEIGMNLNLYAHQGKWLMVDLGVTFGNETTPGVDIILPDPSFIEERKGDLVGLVLTHAHEDHVGAVAYLWPYLECPVYATPFTAEFLRHKLREEGIEPDVKLIEIPLGGRFTVGPFDIEMITTTHSIPEPNHLAIRTTAGTVLHTADWKFDPEPLVGPPADEAALRRLGDEGVLAMVGDSTNIFTEGHSASEGDVRRSMIDLFARFQGRIAVGCFASNIARMETIALAAKANGREVALVGRSLWRMMETARTCGYLKGCPAFLGDEEAAKLPRDKVVYICTGSQGEPRAALKRIASGSHPYVSLSAGDVVIFSSRVIPGNERSILQLQNQLVEMGVKLITSRDAMVHVSGHPGAEEVRSLYGMVRPSIALPVHGEFLHLDHHADVARDLGVAHVVRITNGAVVRLDGAEPTVVGKVPFGRLALDGDRLLQIDCEIIRDRKRMGYNGSVAVSLAIDDKGKLLGTPKISARGLLDPEDDADEVADLTNRVRGAVNAVRPADRKDDAAVAEAVRLAVRRVFRQGQNRRPVTDIHVLRVEGHHHHHH | soluble
